Each block holds one binder with its values, some of them ahead of it.
Experiments:
[1] = biological target: T1, Full-length human V5-tagged PCSK9 (human, UniProt Q8NBP7 31-692, limits assumed); test: co-IP from transfected HEK293 cells, immunoblot
T1 construct: Expressed from pIRES2-EGFP in transfected cells. proPCSK9 and mature forms were both seen in the IPs; also called PCSK9-V5; wild-type PCSK9-V5
Experimental: All other Co-IP experiments were performed as described without the cross-linking step and in SDS-deprived RIPA buffer. HA-tagged proteins and GRP94 were immunoprecipitated with mouse anti-HA-tag (1:500; Cat. #H3663, Sigma-Aldrich) or rat anti-Grp94 (9G10, 1:1000; Cat. #ADI-SPA-850, Enzo Life Sciences).
We next decided to map GRP94 domain(s) important for PCSK9 protein-protein interaction. The overall domain structure of GRP94 includes a signal polypeptide (amino acids; aa1-21) followed by a N-terminal enzymatic ATP-binding domain (aa22-651), client-binding domain (CBD; aa652-678), C-terminal dimerization domain (aa679-799) and a KDEL polypeptide sequence (aa800-803) allowing retention of GRP94 in the endoplasmic reticulum. (Dollins et al., 2007; Maki et al., 1990; Wu et al., 2012) Thus, we first generated cDNA constructs encoding secretable HA-tagged forms of human GRP94 lacking its C-terminal KDEL polypeptide (SEQ ID. NO. 66; FIG. 2). HEK293 cells were transfected without or with SEQ ID. NO. 66 in absence or presence of PCSK9-V5 (FIG. 2a). […] NO. 66 is well expressed (Input; IB: HA) and secreted into media and that SEQ ID. NO. 66 interacts in complex with PCSK9 following immunoprecipitation (IP: V5; FIG. 2b). […] It was reported that a 27 aa C-terminal hydrophobic loop structure within GRP94 client-binding domain (CBD, amino acids aa652-678; ⁶⁵²[…], SEQ ID. NO. 4) was important for folding and interaction with Toll-like receptors and integrins. (Wu et al., 2012) Deletion or alanine-scan mutations in SEQ ID. NO. […] (Wu et al., 2012) Similarly, we generated two mutated constructs in which critical residues within the GRP94-CBD domain where mutated into alanine (AA1: ⁶⁵²[…], SEQ ID. NO. 78 and AA2: ⁶⁵²[…], SEQ ID. NO. 79). HEK293 cells were transfected with either an empty vector (−) or with SEQ ID. NO. 66, 64 or 65 constructs in presence or absence of PCSK9-V5 (FIG. 2b).

[2] = biological target: T2, Recombinant PCSK9-His6 of the Circulex in vitro competitive binding assay (human, UniProt Q8NBP7 31-692, limits assumed); test: solid phase PCSK9-LDLR EGF-AB in vitro competitive binding assay (Circulex CY-8150), 100 ng (13.46 nM) PCSK9-His6 with increasing SEQ ID NO. 6
T2 construct: also called WT PCSK9; wild-type human recombinant His-tagged PCSK9; not shown: His tag
Experimental: Solid phase PCSK9-LDLR epidermal growth factor precursor homology domain A and B (LDLR EGF-AB) in vitro competitive binding assay (Circulex; Cat. #CY-8150) was performed with 100 ng (13.46 nM) of recombinant PCSK9-His6 together with increasing amount of recombinant SEQ ID NO. 6 according to manufacturer's recommendations. Using this in vitro competitive assay, SEQ ID NO.

T1 sequence (Q8NBP7 31-692 limits assumed): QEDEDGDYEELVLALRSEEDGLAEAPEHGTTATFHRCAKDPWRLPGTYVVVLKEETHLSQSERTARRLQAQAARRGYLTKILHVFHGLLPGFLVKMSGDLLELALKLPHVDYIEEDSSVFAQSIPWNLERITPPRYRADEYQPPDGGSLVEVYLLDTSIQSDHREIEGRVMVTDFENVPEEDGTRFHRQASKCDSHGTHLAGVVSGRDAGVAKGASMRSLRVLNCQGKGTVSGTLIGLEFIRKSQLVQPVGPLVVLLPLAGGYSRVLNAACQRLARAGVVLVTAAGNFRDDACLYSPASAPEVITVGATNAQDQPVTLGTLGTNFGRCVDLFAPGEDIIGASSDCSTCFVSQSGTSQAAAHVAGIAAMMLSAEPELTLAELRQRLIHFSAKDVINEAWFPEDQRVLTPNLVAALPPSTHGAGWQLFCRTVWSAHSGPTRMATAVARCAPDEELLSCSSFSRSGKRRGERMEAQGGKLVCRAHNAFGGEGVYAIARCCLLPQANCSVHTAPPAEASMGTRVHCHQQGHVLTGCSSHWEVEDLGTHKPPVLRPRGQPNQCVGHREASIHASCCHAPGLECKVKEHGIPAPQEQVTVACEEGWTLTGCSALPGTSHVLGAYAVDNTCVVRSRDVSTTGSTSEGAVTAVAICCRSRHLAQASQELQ
T2 sequence (Q8NBP7 31-692 limits assumed): as above

- binding result [1]: binds
B1: Secretable ~20 kDa HA-tagged protein containing the CBD and C-terminal domains of GRP94 (CBD-CT; SEQ ID NO 46) (other)
chain: YGWSGNMERIMKAQAYQTGKDISTNYYASQKKTFEINPRHPLIRDMLRRIKEDEDDKTVLDLAVVLFETATLRSGYLLPDTKAYGDRIERMLRLSLNIDPDAKVEEEPEEEPEETAEDTTEDTEQDEDEEMDVGTDEEEETAKESTAEYPYDVPDYA

- IC50 [2]: ~113 nM
B2: Recombinant SEQ ID NO 6, GRP94 CBD-CT (aa 652-799), His6 tag purified from E. coli (other)
chain: YGWSGNMERIMKAQAYQTGKDISTNYYASQKKTFEINPRHPLIRDMLRRIKEDEDDKTVLDLAVVLFETATLRSGYLLPDTKAYGDRIERMLRLSLNIDPDAKVEEEPEEEPEETAEDTTEDTEQDEDEEMDVGTDEEEETAKESTAE
notes: also called NO; 43; GRP94 CDB-CT domain; not shown: His6 tag from pET24b(+)

- binding result [1]: no binding
B3: SEQ ID NO 64, alanine-scanning mutant of GRP94 lacking KDEL (taken as AA1) (other)
chain: DDEVDVDGTVEEDLGKSREGSRTDDEVVQREEEAIQLDGLNASQIRELREKSEKFAFQAEVNRMMKLIINSLYKNKEIFLRELISNASDALDKIRLISLTDENALSGNEELTVKIKCDKEKNLLHVTDTGVGMTREELVKNLGTIAKSGTSEFLNKMTEAQEDGQSTSELIGQFGVGFYSAFLVADKVIVTSKHNNDTQHIWESDSNEFSVIADPRGNTLGRGTTITLVLKEEASDYLELDTIKNLVKKYSQFINFPIYVWSSKTETVEEPMEEEEAAKEEKEESDDEAAVEEEEEEKKPKTKKVEKTVWDWELMNDIKPIWQRPSKEVEEDEYKAFYKSFSKESDDPMAYIHFTAEGEVTFKSILFVPTSAPRGLFDEYGSKKSDYIKLYVRRVFITDDFHDMMPKYLNFVKGVVDSDDLPLNVSRETLQQHKLLKVIRKKLVRKTLDMIKKIADDKYNDTFWKEFGTNIKLGVIEDHSNRTRLAKLLRFQSSHHPTDITSLDQYVERMKEKQDKIYFMAGSSRKEAESSPFVERLLKKGYEVIYLTEPVDEYCIQALPEFDGKRFQNVAKEGVKFDESEKTKESREAVEKEFEPLLNWMKDKALKDKIEKAVVSQRLTESPCALVASQYAASAAAAAIMKAQAYQTGKDISTNYYASQKKTFEINPRHPLIRDMLRRIKEDEDDKTVLDLAVVLFETATLRSGYLLPDTKAYGDRIERMLRLSLNIDPDAKVEEEPEEEPEETAEDTTEDTEQDEDEEMDVGTDEEEETAKESTAEYPYDVPDYA

- binding result [1]: no binding
B4: SEQ ID NO 65, alanine-scanning mutant of GRP94 lacking KDEL (taken as AA2) (other)
chain: DDEVDVDGTVEEDLGKSREGSRTDDEVVQREEEAIQLDGLNASQIRELREKSEKFAFQAEVNRMMKLIINSLYKNKEIFLRELISNASDALDKIRLISLTDENALSGNEELTVKIKCDKEKNLLHVTDTGVGMTREELVKNLGTIAKSGTSEFLNKMTEAQEDGQSTSELIGQFGVGFYSAFLVADKVIVTSKHNNDTQHIWESDSNEFSVIADPRGNTLGRGTTITLVLKEEASDYLELDTIKNLVKKYSQFINFPIYVWSSKTETVEEPMEEEEAAKEEKEESDDEAAVEEEEEEKKPKTKKVEKTVWDWELMNDIKPIWQRPSKEVEEDEYKAFYKSFSKESDDPMAYIHFTAEGEVTFKSILFVPTSAPRGLFDEYGSKKSDYIKLYVRRVFITDDFHDMMPKYLNFVKGVVDSDDLPLNVSRETLQQHKLLKVIRKKLVRKTLDMIKKIADDKYNDTFWKEFGTNIKLGVIEDHSNRTRLAKLLRFQSSHHPTDITSLDQYVERMKEKQDKIYFMAGSSRKEAESSPFVERLLKKGYEVIYLTEPVDEYCIQALPEFDGKRFQNVAKEGVKFDESEKTKESREAVEKEFEPLLNWMKDKALKDKIEKAVVSQRLTESPCALVASQYGWSGNMERIMKAQAYATGKAISTNAAASQKKTFEINPRHPLIRDMLRRIKEDEDDKTVLDLAVVLFETATLRSGYLLPDTKAYGDRIERMLRLSLNIDPDAKVEEEPEEEPEETAEDTTEDTEQDEDEEMDVGTDEEEETAKESTAEYPYDVPDYA

Reference: US20210162000A1 (INSTITUT DE CARDIOLOGIE DE MONTREAL, published 2021)
